Tested on: 28 aa CTD heptad repeat peptide with Ser 5 phosphate or Ser 2 phosphate
Experiment: CTD phosphopeptide phosphatase assay (malachite green)
Format: biochemical
Settings: 25 μM phosphopeptide, 60 mins at 37° C.
Description: The indicated amounts of. SCP1 were incubated with the phosphopeptide substrate and phosphate released was measured as described infra.
N-terminal biotinylated CTD phosphopeptides, comprised of 4 tandem repeats YSPTSPS and containing phosphoserine at position 2 or position 5, were synthesized (Alpha Diagnostics, San Antonio, Tex.). Phosphatase reaction mixtures (50 μl) containing 50 mM Tris-acetate, pH 5.5, 10 mM MgCl2, 0.5 mM DTT, 10% glycerol, 25 μM of phosphopeptide and wild type or mutant SCP1 were incubated for 60 mins at 37° C. The reactions were quenched by adding 0.5 ml of malachite green (Biomol). Phosphate release was measured at A620 and quantified relative to a phosphate standard curve.

B1: SCP1: small CTD phosphatase-1, full-length 261 aa human protein, SEQ ID NO:2 (protein, listed as Homo sapiens)
chain: MDSSAVITQISKEEARGPLRGKGDQKSAASQKPRSRGILHSLFCCVCRDDGEALPAHSGAPLLVEENGAIPKTPVQYLLPEAKAQDSDKICVVIDLDETLVHSSFKPVNNADFIIPVEIDGVVHQVYVLKRPHVDEFLQRMGELFECVLFTASLAKYADPVADLLDKWGAFRARLFRESCVFHRGNYVKDLSRLGRDLRRVLILDNSPASYVFHPDNAVPVASWFDNMSDTELHDLLPFFEQLSRVDDVYSVLRQPRPGS
dephosphorylation of Ser 5 versus Ser 2 phosphopeptide: preferentially dephosphorylates the Ser 5 phosphopeptide
